Measured values reported in PMC5108336, “Tubular epithelial cells in renal clear cell carcinoma express high RIPK1/3 and show increased susceptibility to TNF receptor 1-induced necroptosis” (Cell Death & Disease, 2016).

T1: Mixed lineage kinase domain-like phosphorylated at Serine 358 (human (endogenous in RCC and kidney …, UniProt Q8NB16 1-471, phosphoserine at 358))
T1 construct: also called pMLKL^Ser358; phospho-MLKL^Ser358; source: endogenous, organ cultures of human RCC grade 1 and adjacent non-tumor kidney (tissue sections)
T1 sequence (looked up): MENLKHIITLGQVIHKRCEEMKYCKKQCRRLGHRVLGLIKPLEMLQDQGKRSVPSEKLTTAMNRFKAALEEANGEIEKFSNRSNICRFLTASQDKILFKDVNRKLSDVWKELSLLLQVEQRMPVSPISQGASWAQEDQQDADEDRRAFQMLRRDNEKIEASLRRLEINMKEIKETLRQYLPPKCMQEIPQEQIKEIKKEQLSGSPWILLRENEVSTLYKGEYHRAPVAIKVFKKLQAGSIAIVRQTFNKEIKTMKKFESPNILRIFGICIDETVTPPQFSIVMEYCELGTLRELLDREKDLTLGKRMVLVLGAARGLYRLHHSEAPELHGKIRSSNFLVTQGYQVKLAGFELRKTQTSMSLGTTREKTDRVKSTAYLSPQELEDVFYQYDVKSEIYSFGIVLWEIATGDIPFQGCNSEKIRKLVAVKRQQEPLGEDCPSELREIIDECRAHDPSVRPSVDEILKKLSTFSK

B1: receptor-interacting protein kinase 1 (natural protein, UniProt Q13546-1 1-671, looked up)
chain: MQPDMSLNVIKMKSSDFLESAELDSGGFGKVSLCFHRTQGLMIMKTVYKGPNCIEHNEALLEEAKMMNRLRHSRVVKLLGVIIEEGKYSLVMEYMEKGNLMHVLKAEMSTPLSVKGRIILEIIEGMCYLHGKGVIHKDLKPENILVDNDFHIKIADLGLASFKMWSKLNNEEHNELREVDGTAKKNGGTLYYMAPEHLNDVNAKPTEKSDVYSFAVVLWAIFANKEPYENAICEQQLIMCIKSGNRPDVDDITEYCPREIISLMKLCWEANPEARPTFPGIEEKFRPFYLSQLEESVEEDVKSLKKEYSNENAVVKRMQSLQLDCVAVPSSRSNSATEQPGSLHSSQGLGMGPVEESWFAPSLEHPQEENEPSLQSKLQDEANYHLYGSRMDRQTKQQPRQNVAYNREEERRRRVSHDPFAQQRPYENFQNTEGKGTAYSSAASHGNAVHQPSGLTSQPQVLYQNNGLYSSHGFGTRPLDPGTAGPRVWYRPIPSHMPSLHNIPVPETNYLGNTPTMPFSSLPPTDESIKYTIYNSTGIQIGAYNYMEIGGTSSSLLDSTNTNFKEEPAAKYQAIFDNTTSLTDKHLDPIRENLGKHWKNCARKLGFTQSQIDEIDHDYERDGLKEKVYQMLQKWVMREGIKGATVGKLAQALHQCSRIDLLSSLIYVSQN
notes: Detected in situ by an anti-RIPK1 antibody; also called RIPK1; source: endogenous, organ cultures of human RCC grade 1 and adjacent non-tumor kidney (tissue sections)
B2: receptor-interacting protein kinase 3 (natural protein, UniProt Q9Y572-1 1-518, looked up)
chain: MSCVKLWPSGAPAPLVSIEELENQELVGKGGFGTVFRAQHRKWGYDVAVKIVNSKAISREVKAMASLDNEFVLRLEGVIEKVNWDQDPKPALVTKFMENGSLSGLLQSQCPRPWPLLCRLLKEVVLGMFYLHDQNPVLLHRDLKPSNVLLDPELHVKLADFGLSTFQGGSQSGTGSGEPGGTLGYLAPELFVNVNRKASTASDVYSFGILMWAVLAGREVELPTEPSLVYEAVCNRQNRPSLAELPQAGPETPGLEGLKELMQLCWSSEPKDRPSFQECLPKTDEVFQMVENNMNAAVSTVKDFLSQLRSSNRRFSIPESGQGGTEMDGFRRTIENQHSRNDVMVSEWLNKLNLEEPPSSVPKKCPSLTKRSRAQEEQVPQAWTAGTSSDSMAQPPQTPETSTFRNQMPSPTSTGTPSPGPRGNQGAERQGMNWSCRTPEPNPVTGRPLVNIYNCSGVQVGDNNYLTMQQTTALPTWGLAPSGKGRGLQHPPPVGSQEGPKDPEAWSRPQGWYNHSGK
notes: Detected in situ by an anti-RIPK3 antibody; also called RIPK3; source: endogenous, organ cultures of human RCC grade 1 and adjacent non-tumor kidney (tissue sections)

Legend:
[1] = biological target: B2; assay: proximity ligation; in situ PLA (Duolink In Situ Detection Reagents Red) on sections of organ cultures of RCC grade 1 and adjacent non-tumor kidney (NK), untreated (UT) or treated with wtTNF (10 ng/ml), R1TNF or R2TNF (1 ug/ml) for 3 h at 37 °C; signal when two proteins are closer than 40 nm; red spots counted in mTECs in 10 random fields at x40; settings: partners not purified
[2] = biological target: T1, Mixed lineage kinase domain-like …; assay: as above; settings: partners not purified

Binder | fold increase of PLA signal with R1TNF over untreated (non-tumor kidney organ culture) [1] [fold] | fold increase of PLA signal with R1TNF over untreated (non-tumor kidney organ culture) [2] [fold]
B1 | ~3 | –
B2 | – | ~2.5
